Measured values reported in PMC9507969, “Visualizing maturation factor extraction from the nascent ribosome by the AAA-ATPase Drg1” (Nature Structural & Molecular Biology, 2022).
Blank lines part the entries; values can stand above or below the binder they belong to.

Columns and labels:
[1] = molecular target: T1, Rlp24 (ribosomal-like protein 24) on the pre-60S particle (S. cerevisiae (endogenous in the yeast …, UniProt Q07915 1-199)); test: co-IP; affinity purification of pre-60S particles via Bud20-TAP from S. cerevisiae crm1^T539C (untreated, LmB and/or diazaborine; ARX1 or Δarx1 background), SDS-PAGE and western blotting; settings: partners not purified
T1 construct: Ribosomal-like protein 24 (Rlp24) of S. cerevisiae

[2] = molecular target: T2, Drg1 (diazaborine resistance gene 1), wild type, purified (S. cerevisiae, UniProt P32794 1-780); test: cryo-EM structure; purified Drg1 (1.75 mg/ml, 12 µM) mixed 1:1 with 200 nM export-competent Bud20-TAP pre-60S particles, 2 mM ATPγS, 10 minutes; particle-bound Drg1 and free Drg1 hexamers picked from the same dataset; settings: both partners purified
T2 construct: Drg1 (AFG2), hexameric type-II AAA-ATPase of S. cerevisiae, wild type; Hexamer in the cryo-EM maps; also called DRG1 (AFG2); AAA-ATPase Drg1; source: overexpressed in yeast as GST fusion (CuSO4-induced), purified on GSH-agarose, eluted by Prescission protease cleavage
T2 sequence: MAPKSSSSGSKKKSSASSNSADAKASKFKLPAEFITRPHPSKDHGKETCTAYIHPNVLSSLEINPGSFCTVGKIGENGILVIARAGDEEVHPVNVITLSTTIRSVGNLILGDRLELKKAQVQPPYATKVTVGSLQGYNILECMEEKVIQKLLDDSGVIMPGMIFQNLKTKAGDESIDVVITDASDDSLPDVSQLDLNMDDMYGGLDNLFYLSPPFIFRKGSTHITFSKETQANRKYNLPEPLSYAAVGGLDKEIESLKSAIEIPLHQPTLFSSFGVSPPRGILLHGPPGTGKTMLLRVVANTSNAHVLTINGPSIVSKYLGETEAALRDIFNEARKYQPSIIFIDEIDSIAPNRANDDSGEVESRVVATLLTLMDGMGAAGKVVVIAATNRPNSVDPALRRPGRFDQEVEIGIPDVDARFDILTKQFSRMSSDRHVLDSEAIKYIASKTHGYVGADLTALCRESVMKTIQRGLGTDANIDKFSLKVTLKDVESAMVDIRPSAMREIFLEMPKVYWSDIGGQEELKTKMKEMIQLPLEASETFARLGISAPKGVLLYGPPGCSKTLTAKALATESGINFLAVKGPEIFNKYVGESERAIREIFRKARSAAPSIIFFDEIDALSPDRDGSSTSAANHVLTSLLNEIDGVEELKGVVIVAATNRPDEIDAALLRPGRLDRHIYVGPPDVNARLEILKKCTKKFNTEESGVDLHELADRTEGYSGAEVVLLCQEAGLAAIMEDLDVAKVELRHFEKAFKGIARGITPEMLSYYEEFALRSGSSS

[3] = molecular target: T2, Drg1 (diazaborine resistance gene 1), …; test: cross-linking; pre-60S particles purified via Arx1-TAP from drg1-18 (TEV eluate) incubated with 150 µg purified Drg1 and 1 mM ATPγS, cross-linked with 1.5 mM DSS or BS3 (isotopically labeled), 30 minutes, 30 °C; LC-MS/MS, xQuest/xProphet; settings: both partners purified
[4] = molecular target: T2, Drg1 (diazaborine resistance gene 1), …; test: pull-down; GST-tagged bait on GSH-agarose beads; 80 µg Drg1 in 120 µl binding buffer (20 mM HEPES-KOH, 150 mM potassium acetate, 5 mM magnesium acetate, 0.1% Tween-20, 1 mM DTT, pH 6.8); 1 mM ATP or ATPγS or no nucleotide; 60 minutes, room temperature; settings: both partners purified
[5] = molecular target: T2, Drg1 (diazaborine resistance gene 1), …; test: SPR; Biacore X100; GST-Rlp24C amine-coupled on a CM5 chip, GST in the reference cell; 75-10,000 nM Drg1 injected with 1 mM ATPγS; 20 mM HEPES, 10 mM KCl, 2.5 mM MgCl2, 100 mM NaCl, 0.05% Tween-20, 1 mM DTT, pH 7.5; one-site binding hyperbola on normalized RU; settings: both partners purified

B1: Bud20-TAP (natural protein, S. cerevisiae)
chain: MGRYSVKRYKTKRRTRDLDLIYNDLSTKESVQKLLNQPLDETKPGLGQHYCIHCAKYMETAIALKTHLKGKVHKRRVKELRGVPYTQEVSDAAAGYNLNKFLNRVQEITQSVGPEKESNEALLKEHLDSTLANVKTTEPTLPWAAADAEANTAAVTEAESTASAST
notes: Bud20 of S. cerevisiae; For cryo-EM the Protein A part of the tag was removed by TEV cleavage; source: expressed in S. cerevisiae crm1^T539C; bait of the pre-60S particle purification
binding result [1]: binds

B3: Nog1 on the pre-60S particle (natural protein, UniProt Q02892 1-647, looked up)
chain: MQLSWKDIPTVAPANDLLDIVLNRTQRKTPTVIRPGFKITRIRAFYMRKVKYTGEGFVEKFEDILKGFPNINDVHPFHRDLMDTLYEKNHYKISLAAISRAKSLVEQVARDYVRLLKFGQSLFQCKQLKRAALGRMATIVKKLRDPLAYLEQVRQHIGRLPSIDPNTRTLLICGYPNVGKSSFLRCITKSDVDVQPYAFTTKSLYVGHFDYKYLRFQAIDTPGILDRPTEEMNNIEMQSIYAIAHLRSCVLYFMDLSEQCGFTIEAQVKLFHSIKPLFANKSVMVVINKTDIIRPEDLDEERAQLLESVKEVPGVEIMTSSCQLEENVMEVRNKACEKLLASRIENKLKSQSRINNVLNKIHVAQPQARDDVKRTPFIPESVKNLKKYDPEDPNRRKLARDIEAENGGAGVFNVNLKDKYLLEDDEWKNDIMPEILDGKNVYDFLDPEIAAKLQALEEEEEKLENEGFYNSDDEEEIYDGFEASEVDDIKEKAAWIRNRQKTMIAEARNRKSLKNKAIMPRSKLTKSFGKMEEHMSTLGHDMSALQDKQNRAARKNRYVERGSDVVFGDQDALTASTENGVKLRQTDRLLDGVADGSMRSKADRMAKMERRERNRHAKQGESDRHNAVSLSKHLFSGKRGVGKTDFR
notes: Nog1 of S. cerevisiae; source: endogenous, on pre-60S particles purified from S. cerevisiae via Bud20-TAP (cryo-EM, blots) or Arx1-TAP (cross-linking)
binding result [3]: binds

B4: GST-Rlp24C RKK>E (R191E, K195E, K196E) (domain or fragment, S. cerevisiae, UniProt Q07915 146-199, looked up)
chain: AKEQERAESVSEQEESEEEEEDMEIDSDEEEEEQLEKQKILLKNRERNTEEIAF
notes: Rlp24 of S. cerevisiae, C domain aa 146-199 with three exchanges in the tail; In the ATPase assay the HIS6-tagged form of this variant was used
binding result [4]: binds

More lines, now with the values ahead:

binding result [2]: binds
B2: Arx1 on the pre-60S particle (natural protein, UniProt Q03862 1-593, looked up)
chain: MALAISHEDTQILLKDKNILQESVLNKYRTAGQIAQTALKYVTSLINDSYHSKTTQRQLTVPELCLLTDSFILTRLEQYYKNKVNERGIAIPTTIDIDQISGGWCPEIDDTQNLLNWNKGKDSTFASSVTGTLRPGDLVKITLGVHIDGYTSEVSHTMVIYPVDETKPILQPTGPLLGGKADAVAAAHIAMETVVALLACALTPEKLPASLGGTSSGITGQLIRTIVDTIARSYNCGVVPGSRVRRIRRFLAGQNEGIVAEREYKGVVWTESHQEADLLSNTDAKDLTVVDRGQSTPFTNVSAIPSDDFVVQSGEVYLIDLKMASLEHCTKKGLVTLETVDSYTGKSHKAGELIARPGAYVRDFAQTHILKLKTSRQLLTKIDKQGVYPFKLSHLSSNFPFVHENEEELQSLKKDLKSFRLGMSEISNNYLCVESPIQIARWVPWDHILKATNPNGNLSYDATSTLTLPGHELPLPKLGVSAIKLKSLMNSTKESISLPVARECNTIVLCDSSVSTTDRPELLRLTGGSKTCQPSWIHSQHELNPQDSIVQGIFQLATLAKDKRFGLLLKETQPMKQKSVETSNGGVEETMKM
notes: Arx1 of S. cerevisiae, maturation factor at the exit of the polypeptide exit tunnel; source: endogenous, on pre-60S particles purified via Bud20-TAP from S. cerevisiae crm1^T539C after LmB treatment

Kd [5]: 2700 nM
B5: GST-Rlp24C (Rlp24 C domain, aa 146-199) (domain or fragment, S. cerevisiae, UniProt Q07915 146-199, looked up)
chain: AKEQERAESVSEQEESEEEEEDMEIDSDEEEEEQLEKQKILLKNRRRNTKKIAF
notes: Ribosomal-like protein 24 (Rlp24) of S. cerevisiae, C domain, aa 146-199; In the ATPase assays a HIS6-tagged Rlp24C made in E. coli was used instead of the GST fusion; source: purified
